Source: paper PMC6123813 (Communications biology, 2018)

How the values were obtained:
[1] = molecular target: m-ephrinA1 (Homo sapiens) (UniProt P20827); conditions: cited from earlier work
[2] = molecular target: YSA peptide (synthetic construct); conditions: cited from earlier work
[3] = molecular target: the molecule itself; assay: FRET or BRET; FSI-FRET (two-photon spectral imaging) between EphA2-mTurq and EphA2-eYFP in the plasma membrane of live HEK293T cells in hypo-osmotic medium; no ligand; dimer to monomers, two-dimensional constants in receptors per μm^2

Chain of m-ephrinA1 (Homo sapiens) (P20827 19-182): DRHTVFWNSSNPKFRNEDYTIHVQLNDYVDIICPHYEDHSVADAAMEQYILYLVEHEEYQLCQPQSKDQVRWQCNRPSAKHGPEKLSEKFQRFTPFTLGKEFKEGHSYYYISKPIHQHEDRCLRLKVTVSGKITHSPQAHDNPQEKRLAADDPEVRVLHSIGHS

For EphA2 (from UniProt P29317), which Kd [1] is on record?
The Kd was 25 nM.

What about the Kd [2] of the same molecule?
The Kd was 200 nM.

B1: EphA2 L223R/L254R/V255R triple mutant, full-length, tagged at the C-terminus with mTurquoise or eYFP (receptor, UniProt P29317 24-976, looked up)
chain: AQGKEVVLLDFAAAGGELGWLTHPYGKGWDLMQNIMNDMPIYMYSVCNVMSGDQDNWLRTNWVYRGEAERIFIELKFTVRDCNSFPGGASSCKETFNLYYAESDLDYGTNFQKRLFTKIDTIAPDEITVSSDFEARHVKLNVEERSVGPLTRKGFYLAFQDIGACVALLSVRVYYKKCPELLQGLAHFPETIAGSDAPSRATVAGTCVDHAVVPPGGEEPRMHCAVDGEWRRPIGQCLCQAGYEKVEDACQACSPGFFKFEASESPCLECPEHTLPSPEGATSCECEEGFFRAPQDPASMPCTRPPSAPHYLTAVGMGAKVELRWTPPQDSGGREDIVYSVTCEQCWPESGECGPCEASVRYSEPPHGLTRTSVTVSDLEPHMNYTFTVEARNGVSGLVTSRSFRTASVSINQTEPPKVRLEGRSTTSLSVSWSIPPPQQSRVWKYEVTYRKKGDSNSYNVRRTEGFSVTLDDLAPDTTYLVQVQALTQEGQGAGSKVHEFQTLSPEGSGNLAVIGGVAVGVVLLLVLAGVGFFIHRRRKNQRARQSPEDVYFSKSEQLKPLKTYVDPHTYEDPNQAVLKFTTEIHPSCVTRQKVIGAGEFGEVYKGMLKTSSGKKEVPVAIKTLKAGYTEKQRVDFLGEAGIMGQFSHHNIIRLEGVISKYKPMMIITEYMENGALDKFLREKDGEFSVLQLVGMLRGIAAGMKYLANMNYVHRDLAARNILVNSNLVCKVSDFGLSRVLEDDPEATYTTSGGKIPIRWTAPEAISYRKFTSASDVWSFGIVMWEVMTYGERPYWELSNHEVMKAINDGFRLPTPMDCPSAIYQLMMQCWQQERARRPKFADIVSILDKLIRAPDSLKTLADFDPRVSIRLPSTSGSEGVPFRTVSEWLESIKMQQYTEHFMAAGYTAIEKVVQMTNDDIKRIGVRLPGHQKRIAYSLLGLKDQVNTVGIPI
With B1 as the molecule, how does the “stoichiometry N” value [3] read?
Its value is 2.
